Key:
[1] = target: T1, human CD26-derived 13 mer peptide 67 (human); assay: peptide microarray
T1 construct: also called LPSYRITWTGKED
T1 peptide: LPSYRITWTGKED
Procedure: (§1) The overnight incubation was followed by three washings with each of PBS buffer pH 7.5 and water. The microarrays were then scanned using ArrayWorx-Microarray Scanner.
(§2) The SPOT recognition software package ArrayPro was used for data analysis. The mean of signal intensities from 3 identical subarrays on each microarray image was used for data evaluation.

[2] = target: T2, human CD26-derived 13 mer peptide 71 (human); assay: peptide microarray
T2 peptide: TGKEDIIYNGITD
Procedure: as §1, §2

[3] = target: T3, human CD26-derived 13 mer peptide 87 (human); assay: peptide microarray
T3 peptide: GTFLAYAQFNDTE
Procedure: as §1, §2

[4] = target: T4, human CD26-derived 13 mer peptide 88 (human); assay: peptide microarray
T4 peptide: FLAYAQFNDTEVP
Procedure: as §1, §2

[5] = target: T5, human CD26-derived 13 mer peptide 90 (human); assay: peptide microarray
T5 peptide: AQFNDTEVPLIEY
Procedure: as §1, §2

[6] = target: T6, human CD26-derived 13 mer peptide 96 (human); assay: peptide microarray
T6 peptide: YSFYSDESLQYPK
Procedure: as §1, §2

[7] = target: T7, human CD26-derived 13 mer peptide 100 (human); assay: peptide microarray
T7 peptide: LQYPKTVRVPYPK
Procedure: as §1, §2

[8] = target: T8, human CD26-derived 13 mer peptide 102 (human); assay: peptide microarray
T8 peptide: KTVRVPYPKAGAV
Procedure: as §1, §2

[9] = target: T9, human CD26-derived 13 mer peptide 103 (human); assay: peptide microarray
T9 peptide: VRVPYPKAGAVNP
Procedure: as §1, §2

[10] = target: T10, human CD26-derived 13 mer peptide 104 (human); assay: peptide microarray
T10 peptide: VPYPKAGAVNPTV
Procedure: as §1, §2

[11] = target: T11, human CD26-derived 13 mer peptide 110 (human); assay: peptide microarray
T11 peptide: VKFFVVNTDSLSS
Procedure: as §1, §2

[12] = target: T12, human CD26-derived 13 mer peptide 111 (human); assay: peptide microarray
T12 peptide: FFVVNTDSLSSVT
Procedure: as §1, §2

[13] = target: T13, human CD26-derived 13 mer peptide 112 (human); assay: peptide microarray
T13 peptide: VVNTDSLSSVTNA
Procedure: as §1, §2

[14] = target: T14, human CD26-derived 13 mer peptide 116 (human); assay: peptide microarray
T14 peptide: SVTNATSIQITAP
Procedure: as §1, §2

[15] = target: T15, human CD26-derived 13 mer peptide 117 (human); assay: peptide microarray
T15 peptide: TNATSIQITAPAS
Procedure: as §1, §2

[16] = target: T16, human CD26-derived 13 mer peptide 118 (human); assay: peptide microarray
T16 peptide: ATSIQITAPASML
Procedure: as §1, §2

[17] = target: T17, human CD26-derived 13 mer peptide 119 (human); assay: peptide microarray
T17 peptide: SIQITAPASMLIG
Procedure: as §1, §2

[18] = target: T18, human CD26-derived 13 mer peptide 122 (human); assay: peptide microarray
T18 peptide: PASMLIGDHYLCD
Procedure: as §1, §2

[19] = target: T19, human CD26-derived 13 mer peptide 9 (human); assay: peptide microarray
T19 peptide: SDHEYLYKQENNI
Procedure: as §1, §2

[20] = target: T20, human CD26-derived 13 mer peptide 10 (human); assay: peptide microarray
T20 peptide: HEYLYKQENNILV
Procedure: as §1, §2

[21] = target: T21, human CD26-derived 13 mer peptide 15 (human); assay: peptide microarray
T21 peptide: ILVFNAEYGNSSV
Procedure: as §1, §2

[22] = target: T22, human CD26-derived 13 mer peptide 18 (human); assay: peptide microarray
T22 peptide: EYGNSSVFLENST
Procedure: as §1, §2

[23] = target: T23, human CD26-derived 13 mer peptide 21 (human); assay: peptide microarray
T23 peptide: VFLENSTFDEFGH
Procedure: as §1, §2

[24] = target: T24, human CD26-derived 13 mer peptide 22 (human); assay: peptide microarray
T24 peptide: LENSTFDEFGHSI
Procedure: as §1, §2

[25] = target: T25, human CD26-derived 13 mer peptide 23 (human); assay: peptide microarray
T25 peptide: NSTFDEFGHSIND
Procedure: as §1, §2

[26] = target: T26, human CD26-derived 13 mer peptide 24 (human); assay: peptide microarray
T26 peptide: TFDEFGHSINDYS
Procedure: as §1, §2

[27] = target: T27, human CD26-derived 13 mer peptide 25 (human); assay: peptide microarray
T27 peptide: DEFGHSINDYSIS
Procedure: as §1, §2

[28] = target: T28, human CD26-derived 13 mer peptide 26 (human); assay: peptide microarray
T28 peptide: FGHSINDYSISPD
Procedure: as §1, §2

[29] = target: T29, human CD26-derived 13 mer peptide 28 (human); assay: peptide microarray
T29 peptide: INDYSISPDGQFI
Procedure: as §1, §2

[30] = target: T30, human CD26-derived 13 mer peptide 43 (human); assay: peptide microarray
T30 peptide: YDIYDLNKRQLIT
Procedure: as §1, §2

[31] = target: T31, human CD26-derived 13 mer peptide 44 (human); assay: peptide microarray
T31 peptide: IYDLNKRQLITEE
Procedure: as §1, §2

[32] = target: T32, human CD26-derived 13 mer peptide 45 (human); assay: peptide microarray
T32 peptide: DLNKRQLITEERI
Procedure: as §1, §2

[33] = target: T33, human CD26-derived 13 mer peptide 46 (human); assay: peptide microarray
T33 construct: also called NKRQL1TEERIPN
T33 peptide: NKRQLITEERIPN
Procedure: as §1, §2

[34] = target: T34, human CD26-derived 13 mer peptide 47 (human); assay: peptide microarray
T34 peptide: RQLITEERIPNNT
Procedure: as §1, §2

[35] = target: T35, human CD26-derived 13 mer peptide 60 (human); assay: peptide microarray
T35 peptide: YVWNNDIYVKIEP
Procedure: as §1, §2

[36] = target: T36, human CD26-derived 13 mer peptide 61 (human); assay: peptide microarray
T36 peptide: WNNDIYVKIEPNL
Procedure: as §1, §2

[37] = target: T37, human CD26-derived 13 mer peptide 62 (human); assay: peptide microarray
T37 peptide: NDIYVKIEPNLPS
Procedure: as §1, §2

[38] = target: human CD26 on the cell surface (human, UniProt P27487 1-766); assay: cell-based or functional assay
Sequence of human CD26 on the cell surface (P27487 whole entry): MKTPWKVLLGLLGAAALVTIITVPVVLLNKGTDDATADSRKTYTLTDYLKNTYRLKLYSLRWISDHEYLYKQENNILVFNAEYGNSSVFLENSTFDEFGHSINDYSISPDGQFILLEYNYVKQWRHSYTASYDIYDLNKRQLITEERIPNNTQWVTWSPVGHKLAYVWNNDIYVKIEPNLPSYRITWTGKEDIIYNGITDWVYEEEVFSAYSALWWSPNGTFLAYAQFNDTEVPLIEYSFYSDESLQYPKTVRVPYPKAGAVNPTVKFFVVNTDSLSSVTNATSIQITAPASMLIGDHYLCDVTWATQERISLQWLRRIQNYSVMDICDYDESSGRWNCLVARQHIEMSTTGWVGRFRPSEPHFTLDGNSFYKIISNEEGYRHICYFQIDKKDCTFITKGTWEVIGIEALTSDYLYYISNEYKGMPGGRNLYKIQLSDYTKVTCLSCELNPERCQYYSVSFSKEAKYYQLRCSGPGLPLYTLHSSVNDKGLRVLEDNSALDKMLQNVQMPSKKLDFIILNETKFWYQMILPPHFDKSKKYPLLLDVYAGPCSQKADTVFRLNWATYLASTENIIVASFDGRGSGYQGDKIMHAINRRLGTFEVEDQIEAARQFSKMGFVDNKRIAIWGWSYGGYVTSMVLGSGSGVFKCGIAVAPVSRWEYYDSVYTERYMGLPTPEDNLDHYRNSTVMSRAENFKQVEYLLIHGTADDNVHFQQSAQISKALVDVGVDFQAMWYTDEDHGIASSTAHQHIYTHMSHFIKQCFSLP

B1: rhuMAb 412 (antibody, human IgG1, V domains shown)
VH: EVQLVQSGGGVKQPGETLRLTCTASGFSLTTYGVHWVRQAPGKGLEWVGVIWGDGRTDYDAAFMSRVTISKDTSKSTAYLQMNSLRAEDTAVYYCMRNRHDWFDYWGQGTTVTVSS
VL: EIEMTQSPSSLSVSAGERATISCSASQDIRNSLNWYQQKPGQAPRLLIYYSSNLHTGVPARFSGSGSGTDFTLTISRLEPEDVAIYYCQQSNKLPLTFGSGTKVEIKR
notes: X385 VH and X380 VL with human IgG1 and human kappa constant regions; also called X412
Mean Signal Value [1]: 0
Mean Signal Value [2]: 0
Mean Signal Value [3]: 0
Mean Signal Value [4]: 0
Mean Signal Value [5]: 0
Mean Signal Value [6]: 0
Mean Signal Value [7]: 0
Mean Signal Value [8]: 0
Mean Signal Value [9]: 0
Mean Signal Value [10]: 0
Mean Signal Value [11]: 0
Mean Signal Value [12]: 0
Mean Signal Value [13]: 0
Mean Signal Value [14]: 0
Mean Signal Value [15]: 0
Mean Signal Value [16]: 0
Mean Signal Value [17]: 0
Mean Signal Value [18]: 0
Mean Signal Value [19]: 0
Mean Signal Value [20]: 0
Mean Signal Value [21]: 0
Mean Signal Value [22]: 0
Mean Signal Value [23]: 0
Mean Signal Value [24]: 0
Mean Signal Value [25]: 0
Mean Signal Value [26]: 0
Mean Signal Value [27]: 0
Mean Signal Value [28]: 0
Mean Signal Value [29]: 0
Mean Signal Value [30]: 0
Mean Signal Value [31]: 0
Mean Signal Value [32]: 0
Mean Signal Value [33]: 0
Mean Signal Value [34]: 0
Mean Signal Value [35]: 0
Mean Signal Value [36]: 0
Mean Signal Value [37]: 0
percent inhibition, MTT assay, Jurkat CD26+ cells, 0.05 ug/ml [38]: 0.3%
percent inhibition, MTT assay, Jurkat CD26+ cells, 0.25 ug/ml [38]: 5.4%
percent inhibition, MTT assay, Jurkat CD26+ cells, 5 ug/ml [38]: 23.6%

Reference: patent publication US20070105771A1 (Y S THERAPEUTICS, published 2007)
